Values joined by “and” are separate entries in the source; they are usually repeats but may differ in a detail not shown here. Equal entries are not always repeated. Where two headings read alike, the source gives them in different places.
Columns and labels:
[1] = biological target: Influenza HA-Trimer (exemplary fusion protein comprising HA (Influenza A virus A/California/07/2009-pdm (H1N1))); test: biolayer interferometry (Octet), […]
[2] = biological target: recombinant HA produced from insect cells; test: ForteBio Octet molecular interaction analysis
[3] = biological target: Rabies G-Trimer (CTN-1 Strain) (ectodomain of rabies CTN-1 strain G protein fused in frame to Trimer-Tag) (Rabies virus CTN-1 strain)
[4] = biological target: Rabies G-Trimer (CTN-1 Strain) (ectodomain of rabies CTN-1 strain G protein fused in frame to Trimer-Tag) (Rabies virus CTN-1 strain); remark: listed apart in the source
[5] = biological target: Rabies G-Trimer (CTN-1 Strain) (ectodomain of rabies CTN-1 strain G protein fused in frame to Trimer-Tag) (Rabies virus CTN-1 strain); remark: listed apart in the source

Substance | Kd [1] | Kd [2] | p75 Competitive titer IC50 GMT [3] | p75 Competitive titer IC50 GMT [4] | CTN-1 Specific IgG titer (End point) [5]
CR6261 (broadly neutralizing anti-HA antibody, ACRO Biosystems) | < 0.001 nM | 3.8 nM | – | – | –
HDCV | – | – | 87 | 30 and 25 | 57 and 33

Source: patent US20230218739A1
